In the DeepSol protein solubility set:

Assay: soluble on expression in E. coli; label from the status in PepcDB or PDB records

Row | Sequence | soluble on expression in E. coli
1 | MGSDKIHHHHHHMKQGIEFIKFNPTQNMTILVETNDPIGEYKHIAEKIMSYDSVYAEQVGFIEKPLNRQAAAHLEMAGGEFCGNACMALAALIASEKGLRPTELMEIVLEVSGTDNLVMCQVERTLDEFHCQVTMPLPKQIEQKIVKYDGSEMNLIIVRYQEFIHIVIEVDDFNKIVREKAQSLAKLLGVTLGTNLIGILLYKSNTSELAPLIFVPDLDSMIWERGCGSGTASLGAYLAWKNKKEIVAKIKQPGGTIQVIATCEEEKLTSLKIEGSVSIVARGKAFIDV | not soluble
2 | MKIVVIGATGIIGKAIVAELNPRHEIISASYKNSDIQVDITSKQSIDAMYKKLNTIDAIVLATGKVHFAALKDMGEDDYKIGLTNKLMGQVNVVLAGLEYINDNGSFTLTSGILNRDPILYGSSAAMVNGALDGFIKSAALEMPRGIRINGVSPTVITEAMENYGPYFRGYEPVSAARAALAYSKSIEGAQTGQVYCVGLEHHHHHH | not soluble
3 | MSLAQSIVVVAEPSHSDLYDLLAVGNAGIRLVSAAGLSTAIGPSDPDIVILDSGTDADGGITLLGEIKALRNDLPVIFLTDSSSEEIVLKAFRKGAREYFRKPVDLHVLQHAVETILALRRMQRERRDPLKRHYSDPINLPDDLPESIGRAVMHIKSNYDCALYLDDLARAAHLSKFHFCRNFKKYIGVSPMRFMNMVKISKAETLLRRADLTISTVAYKLGFNDPSEFTRQFKSITGISPSAFRRSCLSEGHHHHHH | not soluble
4 | AMASASLCFLETENISKMAQILVDRCVEITNASFGFLYELVFGGDARILAVSSTAAVPAGGLCAQVKGHIEREGFFLVTPSDGLLFEPVKAGTTVLTNNPTTLDHLICRDSGNLGQINSFLGTPLKVGSRVVGMIGLTDRPDGFTDMERREIEAFAQTAALALHSARAEIEHKK | not soluble
5 | MGSDKIHHHHHHMIEFAAITSVISKYAPQASQLIIKQAQKNEAVINILHELKLNPTQISDDIDTVYIYALIRYGVFKHEAILNLFREKEIKGCFWDAYSSNTPFKFVENAKKLLNQNSELKMQLINAKINFLAEIEEFGEAFIAVAKQTKSSKYQPYPDWNLDVYSKEFKALIFEKTRLFCGRDFVFKAIQKFFTTQAKGYFSIVGDAGMGKSAIAAKYVLAYKFPCYFNIFAEGRNKPEKFLASIRQQLIKRYSLQNADNTDLRTLLQKASEELKGQKLVIVVDALDEVEQEGNGNLLDLPQNLPNGVYFLLTRRLYNQETKRLTLSPDTPVYELDLTQGDYTALSQEDVKEYIELYLNNDSDLKNWINERHISEDSFTQEIAVKSENNFIYLRYLLPGISEGKYNDLNLKGLPQGLQDYYTTHWNRMGMDKESNEKKVKILYILVERGEPISINMITEILDEEEYEVKSVLNEWVEYVTPKVNVDEHKTYYSIYHRSFLEFLKSQDKLGKGRKLFREVNKSMANYMLKEMA | not soluble
6 | MGHHHHHHSHQVLTTSRKPGRKTRRFAKVLARFFNWKYVNRGKLSLEDLAGIAERFWIISEVKGNPAILNLYERGEKTLEVSFTLSNVNKIKMDDSPAVFKGKAPIDPLVFGAIPQTKAGLKLTRKVEFRKKVVVKGDEWLFFYDDEMLFKLRILKISRSS | soluble
7 | MSLKIILVEDEENLARLLKEAIGDNFHSFTVAKDGIEGIEFFKKIRPDIVITDIMMPNLDGLKMAKELKRINPNIPIIILSAFSEKEKLLSAIDVGITKYFIKPFDAEELLEYISSITSRIENKILKLSDCYIFNKNTSSLYKNEKYIALSKNDIKFLYLLLDSKNRTVDDISIKEALWGGDASDERLRTFIKRFREKTSKMLIKNIKGFGYQLLLNEGHHHHHH | not soluble
8 | MSLSARSSASSWSEEPVQSNMDISTGHMILSYMEDHLKNKNRLEKEWEALCAYQAEPNSSFVAQREENVPKNRSLAVLTYDHSRVLLKAENSHSHSDYINASPIMDHDPRNPAYIATQGPLPATVADFWQMVWESGCVVIVMLTPLAENGVRQCYHYWPDEGSNLYHIYEVNLVSEHIWCEDFLVRSFYLKNLQTNETRTVTQFHFLSWYDRGVPSSSRSLLDFRRKVNKCYRGRSCPIIVHCSDGAGRSGTYVLIDMVLNKMAKGAKEIDIAATLEHLRDQRPGMVQTKEQFEFALTAVAEEVNAILKALPQEGHHHHHH | soluble
9 | MGSDKIHHHHHHMTFRALPSVDRLIRAVRSDGADMPHELVREAARAVLNEARTSISAGHPPPDLSTLVAAVQARLRADVTPSLRPLINATGVIIQTNLGRAPLSAAACAAMQEVGSGYSNLEYDLAQGERGSRHVHLESLLVQLTGAEAALVVNNNAAAVYLVLIAMAAGREVIVSRGQAVEIGGGFRIPDVLRASGALLIEVGTTNRTYARDYTAAITERTALILRVHTSNFRLIGFVHEPPLAELTAVAHTHGIPLLDDLGSGTLIDTRQFDLPPEPTVQESVAAGADLVTFSGDKLLGGPQAGIIVGRRELIARLRRHPLARALRVDKCTIAGLTATLHSYLRGTALREIPVWQLISTPLSALQARAERIAGALRAAGIPAQMVDCASAIGGGSLPGATQPSAGVALPPVGCGATVLAHRLRMANPPVITRIVDDQVLCDLRSVFPHEDTTLINVVREVWQ | not soluble
10 | KDQIPIILIHGSGGNASSLDKMADQLMNEYRSSNEALTMTVNSEGKIKFEGKLTKDAKRPIIKFGFEQNQATPDDWSKWLKIAMEDLKSRYGFTQMDGVGHSNGGLALTYYAEDYAGDKTVPTLRKLVAIGSPFNDLDPNDNGMDLSFKKLPNSTPQMDYFIKNQTEVSPDLEVLAIAGELSEDNPTDGIVPTISSLATRLFMPGSAKAYIEDIQVGEDAVHQTLHETPKSIEKTYWFLEKFKTDETVIQLDYK | soluble
11 | MGSDKIHHHHHHGCSRRDILDDYPVSGVEVRLDWSGVTEKLPEGVRIIFYPKDEKGRKIDTYLSVTGGEVKVPSGHYAVVIYNYDTETVLIRGEESYETIQAYTNFCKLGIAGTEKMVWGPDPLYVVNIDDLDIQNSEETLILKLKPKLVIRTYSFSIKVQGLSNVSNVIGSIGGMADHYFLGKAYAMCDDYPINIDLNVKAGKIEGVFTTFGLPEAIITRLEIKLPVMMNLMIIKVDNSVQEVKINITEAVQEPTGGGEGGEGEETKPPALVEVEIEDEIKVDDVETPPSGGGGIGGDVGDWDDETNVELPVG | not soluble
12 | MLDLFADAEPWQEPLAAGAVILRRFAFNAAEQLIRDINDVASQSPFRQMVAPGGYTMSVAMTNCGHLGWTTHRQGYLYSPIDPQTNKPWPAMPQSFHDLCQRAATAAGYPDFQPDACLINRYAPGAKLSLHQDKDEPDLRAPIVSVSLGLPAIFQFGGLKRNDPLKRLLLEHGDVVVWGGESRLFYHGIQPLKAGFHPLTTDCRYNLTFRQAGKKE | not soluble
13 | MGSDKIHHHHHHMTYPKRIPINAWSEVHRVARPLIITFDAYNTLYATKLPVMEQYCIVGRKYGIKANPSTLTNNFPHVFKKLKEDYPQYGKYSGIKPEQWWSILIRNVFAPNEIPDEMINEILMRFEGFDSYFVYPDLIKFLKDLKSRHPDVILGIVSNTDPIFYKLLKNIGLFETFSGHIYLSYELNLAKPDRAIFQYALDDIISKQPHLLEKYTREEILQHCFHIGDELKNDLEGAEAAGWTGILLDRNDKYGFLSNSISKPMRDEYKLSIDKIDNNSINTWEANTKQTDTLQLSERKYVVSNLEVLEELFP | not soluble
14 | HVYDEQIYRKSSEVLRMSSERIEDELKKIEDVSYEIITDEQIQRILSMQNRDDTYDQYQMKQELWDQLAGYASDEKYIDSIHVIDARGSEYSAGSSSSDLLQQEQEEVFKRAKAKSGRNLWMTLGGSDPVLISARQIRSYHQLSLNGLGMVLIQVNVKQMIRDVPKDWGDSVGDIMIADQGGNLVYTAHASAHVPEAAKETLKHPGYDLIKKNGKRYFISYLQSSYQNWSYYNVIPFDQMFAK | not soluble
15 | MAHHHHHHMTRKVAGDMWDSRVEASLPALNYLRTAQQLQKKADELSRAQERVHRLQEDNSALLLENELLKRERDALLCKVQFLELNEHGHCTTNDIVGPWGNVRSVPAGGLGSTTGGDLSPVFKDNVNKASETRVNISEQARTHTNSEQQDLHNPKEETILCPLSASSETLINTNRPDANIETFHRSTESHVEYCANGECRSPISMTRTTQTVAYERRVPSVERGTMTTMNIYICSYQSLPSKAGAFFEVPLSNVETAIHHDPESLTSITIPRS | not soluble
